From US6348573B1, “Compositions and methods for identifying apoptosis signaling pathway inhibitors and activators” (The Regents of the University of Michigan, priority 1998, dated 2002) come the findings set out here.

The target in experiment [1] is RICK (Homo sapiens, UniProt O43353). The experiment is described as follows: Autophosphorylation of RICK. To be noted: immunoprecipitated from 293T cells, [γ-32P]ATP.
Experiment [2] concerns the target T1, FADD (Homo sapiens, UniProt Q13158).
T1 construct: made in house
T1 sequence (Q13158 1-208): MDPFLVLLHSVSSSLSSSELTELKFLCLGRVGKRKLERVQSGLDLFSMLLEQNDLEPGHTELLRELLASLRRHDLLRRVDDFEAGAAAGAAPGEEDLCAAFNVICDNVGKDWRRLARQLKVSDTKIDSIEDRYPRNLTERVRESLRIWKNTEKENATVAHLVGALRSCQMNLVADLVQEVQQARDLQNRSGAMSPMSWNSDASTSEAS
The experiment is described as follows: In vitro phosphorylation of recombinant FADD by RICK immunoprecipitates. The format is biochemical. To be noted: immunoprecipitates from 293T cells, 5 μM [γ-32P]ATP. The source says: CIPERK proteins in total lysate were detected by immunoblotting with mAb to Flag (middle panel). Recombinant FADD on the same filter used in (A) was detected by immunoblotting, with rabbit polyclonal anti-(His)6 antibody (lower panel). Note CIPERK was autophosphorylated. The estimated molecular size is shown on the left [293T cells were transfected with vector control or plasmid expressing Flag-CIPERK (WT) or Flag-CIPERK-K38M (mt), and then CIPERK proteins were immunoprecipitated by mAb to Flag and incubated with recombinant FADD and 5 μM [γ-^32P]ATP].

Chain of RICK (O43353 with tags, fused parts or gaps): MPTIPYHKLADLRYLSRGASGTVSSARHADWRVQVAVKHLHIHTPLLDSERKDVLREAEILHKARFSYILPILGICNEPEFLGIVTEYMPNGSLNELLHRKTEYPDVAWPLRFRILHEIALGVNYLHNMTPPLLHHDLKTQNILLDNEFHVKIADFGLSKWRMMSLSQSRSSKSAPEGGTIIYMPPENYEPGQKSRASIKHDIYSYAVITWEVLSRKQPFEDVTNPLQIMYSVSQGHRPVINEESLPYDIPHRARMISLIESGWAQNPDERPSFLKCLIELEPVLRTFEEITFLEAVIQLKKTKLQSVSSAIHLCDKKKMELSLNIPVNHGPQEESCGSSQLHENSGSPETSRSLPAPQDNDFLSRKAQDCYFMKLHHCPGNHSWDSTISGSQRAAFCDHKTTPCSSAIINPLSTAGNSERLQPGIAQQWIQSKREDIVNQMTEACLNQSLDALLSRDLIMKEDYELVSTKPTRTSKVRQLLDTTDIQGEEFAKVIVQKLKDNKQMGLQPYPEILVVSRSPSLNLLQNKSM

In the case of “RICK-K38M: RICK ATP-binding site mutant, lysine at position 38 replaced by methionine”, the auto-phosphorylation in vitro entry in experiment [1] is “dramatically decreased”. The “phosphorylation of recombinant FADD” value in experiment [2] is reported as “did not”.
